Target: T1, Protein H (Streptococcus pyogenes (strain AP1), ^125I-labelled in the plate binding assay; Alexa-488 succinimidyl ester-labelled in thermophoresis; unlabelled elsewhere)
T1 construct: Protein H, surface protein of the M protein family of Streptococcus pyogenes AP1; recombinant; theoretical mass of the monomer 42 kDa; written as the single chain because its self-association is itself measured; also called ^125I-Protein H; source: E. coli, expressed and purified (previously described protocols)
T1 chain: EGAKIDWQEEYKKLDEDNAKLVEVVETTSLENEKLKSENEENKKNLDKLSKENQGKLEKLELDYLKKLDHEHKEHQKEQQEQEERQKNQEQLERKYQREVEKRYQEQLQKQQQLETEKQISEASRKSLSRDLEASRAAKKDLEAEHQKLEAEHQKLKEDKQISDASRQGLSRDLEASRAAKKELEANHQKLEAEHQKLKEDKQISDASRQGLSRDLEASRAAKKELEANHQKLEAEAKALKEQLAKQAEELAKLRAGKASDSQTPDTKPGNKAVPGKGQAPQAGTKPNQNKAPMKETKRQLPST
Test: native gel or EMSA; native horizontal agarose gel, 75 mM sodium barbital pH 8.6, Coomassie blue; two proteins pre-incubated in PBS 1 h at 37°C (ratios as C4BP:IgG:Protein H 1:10:10)
Settings: both partners purified

B1: Denosumab (monoclonal human IgG2) (antibody, V domains shown)
VH: EVQLLESGGGLVQPGGSLRLSCAASGFTFSSYAMSWVRQAPGKGLEWVSGITGSGGSTYYADSVKGRFTISRDNSKNTLYLQMNSLRAEDTAVYYCAKDPGTTVIMSWFDPWGQGTLVTVSS
VL: EIVLTQSPGTLSLSPGERATLSCRASQSVRGRYLAWYQQKPGQAPRLLIYGASSRATGIPDRFSGSGSGTDFTLTISRLEPEDFAVFYCQQYGSSPRTFGQGTKVEIK
notes: constant region of the human IgG2 heavy chain; it is here the ligand of Protein H through its Fc; Recombinantly expressed drug antibody; also called hu-IgG2; source: bought: Amgen
- binding result: binds

Reference: PMC6557989, “The Molecular Basis of Human IgG-Mediated Enhancement of C4b-Binding Protein Recruitment to Group A Streptococcus” (Frontiers in Immunology, 2019)
